In assay [1] the target is human α-synuclein, full length, wild type (human) (UniProt P37840). In words: direct ELISA, 100 ng/ml coating of full length α-synuclein.
Assay [2] shares this target. In words: direct ELISA, 20 µg/ml coating of full length α-synuclein. (In general: ELISA stands for enzyme-linked immunosorbent assay.)

Drawing on patent publication US20180371065A1, this text covers EC50 for one substance.

The term EC50 denotes the midpoint of the concentration-response curve. A low value points to greater potency.

Take antibody Syn211 (Sigma): the EC50 in assay [1] was 0.099 nM; in assay [2], 0.335 nM.
